According to US20220056104A1 (Janssen / Centocor, published 2022):
Where a chain is given by its changes, count along the chain named. In names and notes the source's numbering stands.

T1: DcR3 (UniProt O95407 30-300, limits assumed)
T1 construct: the construct is not described; also called decoy receptor DcR3; TNFRSF6B
T1 sequence (looked up): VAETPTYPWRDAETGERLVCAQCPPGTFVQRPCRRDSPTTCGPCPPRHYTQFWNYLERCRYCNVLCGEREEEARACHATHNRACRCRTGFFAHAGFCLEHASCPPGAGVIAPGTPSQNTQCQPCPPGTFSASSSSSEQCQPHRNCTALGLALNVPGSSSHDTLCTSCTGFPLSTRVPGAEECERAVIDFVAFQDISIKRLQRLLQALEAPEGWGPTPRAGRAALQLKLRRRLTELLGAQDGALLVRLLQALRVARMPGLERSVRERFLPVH

T2: Recombinant DR3-Fc (R&D Systems, cat. #943-D3) (UniProt Q93038 25-199, limits assumed)
T2 construct: dimeric MW~92 kDa; also called DR3 receptor; Fc-DR3; not shown: Fc part of the bought fusion
T2 sequence (looked up): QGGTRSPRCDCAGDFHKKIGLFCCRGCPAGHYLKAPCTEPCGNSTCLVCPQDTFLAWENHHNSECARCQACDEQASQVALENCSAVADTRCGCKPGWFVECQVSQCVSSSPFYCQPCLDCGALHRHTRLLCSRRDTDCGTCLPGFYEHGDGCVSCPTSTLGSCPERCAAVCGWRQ

B1: TL1W24 (His-TEV-hTL1A 72-251 F209A) (ligand)
chain: HHHHHHENLYFQGLKGQEFAPSHQQVYAPLRADGDKPRAHLTVVRQTPTQHFKNQFPALHWEHELGLAFTKNRMNYTNKFLLIPESGDYFIYSQVTFRGMTSECSEIRQAGRPNKPDSITVVITKVTDSYPEPTQLLMGTKSVCEVGSNWAQPIYLGAMFSLQEGDKLMVNVSDISLVDYTKEDKTFFGAFLL
notes: also called TL1W24 (F209A)
B2: TL1W29 (His-TEV-hTL1A 72-251 P189A) (ligand)
chain: B1 chain with P131A, A151F
notes: also called TL1W29 (P189A)
B3: TL1W47 (His-TEV-TL1A E241A) (ligand)
chain: B1 chain with A151F, E183A
notes: also called TL1W47 (E241A)
B4: TL1W88 (His-TEV-TL1A R156A) (ligand)
chain: B1 chain with R98A, A151F
notes: also called TL1W88 (R156A)
B5: TL1W33 (E241L) (ligand)
chain: B1 chain with A151F, E183L
notes: no entry of the listing holds E241L; also called E241L variant of His-TL1A
B6: TL1W79 (His-TEV-TL1A R103E) (ligand)
chain: B1 chain with R45E, A151F
notes: also called TL1W79 (R103E)
B7: TL1W41 (His-TEV-TL1A E120A) (ligand)
chain: B1 chain with E62A, A151F
notes: also called TL1W41 (E120A)
B8: TL1W32 (His-TEV-hTL1A 72-251 Y188A) (ligand)
chain: B1 chain with Y130A, A151F
notes: also called TL1W32 (Y188A)
B9: TL1W43 (His-TEV-TL1A Y188S) (ligand)
chain: B1 chain with Y130S, A151F
notes: also called TL1W43 (Y188S)
B10: TL1W134 (His-TEV-TL1A T239K) (ligand)
chain: B1 chain with A151F, T181K
notes: also called TL1W134 (T239K)
B11: TL1W31 (GD: Single chain MMB in CBIS; His-TEV-hTL1A 72-251 R103Q) (ligand)
chain: B1 chain with R45Q, A151F
notes: also called TL1W31 (R103Q)
B12: TL1W33 (His-TEV-hTL1A 72-251 R103A) (ligand)
chain: B1 chain with R45A, A151F
notes: also called TL1W33 (R103A)
B13: TL1W135 (His-TEV-TL1A K240A) (ligand)
chain: B1 chain with A151F, K182A
notes: also called TL1W135 (K240A)
B14: TL1W101 (His-TEV-TL1A S176N) (ligand)
chain: B1 chain with S118N, A151F
notes: also called TL1W101 (S176N)
B15: TL1W128 (His-TEV-TL1A Y238S) (ligand)
chain: B1 chain with A151F, Y180S
notes: also called TL1W128 (Y238S)
B16: TL1W42 (His-TEV-TL1A F114A) (ligand)
chain: B1 chain with F56A, A151F
notes: also called TL1W42 (F114A)
B17: TL1W139 (His-TEV-TL1A E241Q) (ligand)
chain: B1 chain with A151F, E183Q
notes: also called TL1W139 (E241Q)
B18: TL1W81 (His-TEV-TL1A K111S) (ligand)
chain: B1 chain with K53S, A151F
notes: also called TL1W81 (K111S)
B19: TL1W133 (His-TEV-TL1A T239F) (ligand)
chain: B1 chain with A151F, T181F
notes: also called TL1W133 (T239F)
B20: TL1W138 (His-TEV-TL1A K240D) (ligand)
chain: B1 chain with A151F, K182D
notes: also called TL1W138 (K240D)
B21: TL1W37 (His-TEV-TL1A L123E) (ligand)
chain: B1 chain with L65E, A151F
notes: also called TL1W37 (L123E)
B22: TL1W44 (His-TEV-TL1A P189K) (ligand)
chain: B1 chain with P131K, A151F
notes: also called TL1W44 (P189K)
B23: TL1W91 (His-TEV-TL1A R156E) (ligand)
chain: B1 chain with R98E, A151F
notes: also called TL1W91 (R156E)
B24: TL1W28 (His-TEV-hTL1A 72-251 E190G) (ligand)
chain: B1 chain with E132G, A151F
notes: also called TL1W28 (E190G)
B25: TL1W78 (His-TEV-TL1A R103H) (ligand)
chain: B1 chain with R45H, A151F
notes: also called TL1W78 (R103H)
B26: TL1W86 (His-TEV-TL1A G124K) (ligand)
chain: B1 chain with G66K, A151F
notes: also called TL1W86 (G124K)
B27: TL1W83 (His-TEV-TL1A E120K) (ligand)
chain: B1 chain with E62K, A151F
notes: also called TL1W83 (E120K)
B28: TL1W25 (His-TEV-hTL1A 72-251 N207A) (ligand)
chain: B1 chain with N149A, A151F
notes: also called TL1W25 (N207A)
B29: TL1W40 (His-TEV-TL1A L123S) (ligand)
chain: B1 chain with L65S, A151F
notes: also called TL1W40 (L123S)
B30: TL1W89 (His-TEV-TL1A R156Y) (ligand)
chain: B1 chain with R98Y, A151F
notes: also called TL1W89 (R156Y)
B31: TL1W27 (His-TEV-hTL1A 72-251 T239E) (ligand)
chain: B1 chain with A151F, T181E
notes: also called TL1W27 (T239E)
B32: TL1W39 (His-TEV-TL1A L123G) (ligand)
chain: B1 chain with L65G, A151F
notes: also called TL1W39 (L123G)
B33: TL1W30 (His-TEV-hTL1A 72-251 N112E) (ligand)
chain: B1 chain with N54E, A151F
notes: also called TL1W30 (N112E)
B34: TL1W130 (His-TEV-TL1A Y238R) (ligand)
chain: B1 chain with A151F, Y180R
notes: also called TL1W130 (Y238R)
B35: TL1W87 (His-TEV-TL1A G124D) (ligand)
chain: B1 chain with G66D, A151F
notes: also called TL1W87 (G124D)
B36: TL1W46 (His-TEV-TL1A T239W) (ligand)
chain: B1 chain with A151F, T181W
notes: also called TL1W46 (T239W)
B37: TL1W108 (His-TEV-TL1A S187A) (ligand)
chain: B1 chain with S129A, A151F
notes: also called TL1W108 (S187A)

Target: T1, DcR3
Experiment: ELISA, DcR3

Binder	EC50	Rel EC50
B1	30.7 nM	6.7 ratio (head: nM)
B2	7.6 nM	1.7 ratio (head: nM)
B3	1310 nM	285 ratio (head: nM)
B4	13.5 nM	2.9 ratio (head: nM)
B5	5.7 nM	1.2 ratio (head: nM)
B6	7.1 nM	1.5 ratio (head: nM)
B7	32.6 nM	7.1 ratio (head: nM)
B8	7.6 nM	1.7 ratio (head: nM)
B9	72.2 nM	15.7 ratio (head: nM)
B10	21.5 nM	4.7 ratio (head: nM)
B11	2.5 nM	0.5 ratio (head: nM)
B12	3.3 nM	0.7 ratio (head: nM)
B13	8.5 nM	1.9 ratio (head: nM)
B14	20.4 nM	4.4 ratio (head: nM)
B15	10.5 nM	2.3 ratio (head: nM)
B16	11.4 nM	2.5 ratio (head: nM)
B17	17.3 nM	3.8 ratio (head: nM)

Binder	EC50	Rel EC50
B18	50.9 nM	11.1 ratio (head: nM)
B19	10.8 nM	2.3 ratio (head: nM)
B20	59.5 nM	12.9 ratio (head: nM)
B21	24.3 nM	5.3 ratio (head: nM)
B22	59.1 nM	12.8 ratio (head: nM)
B23	8.3 nM	1.8 ratio (head: nM)
B24	5.7 nM	1.2 ratio (head: nM)
B25	8.1 nM	1.8 ratio (head: nM)
B26	2.9 nM	0.6 ratio (head: nM)
B27	2.2 nM	0.5 ratio (head: nM)
B28	3.7 nM	0.8 ratio (head: nM)
B29	16.4 nM	3.6 ratio (head: nM)
B30	8 nM	1.7 ratio (head: nM)
B31	34.3 nM	7.5 ratio (head: nM)
B32	38.2 nM	8.3 ratio (head: nM)
B33	4.7 nM	1 ratio (head: nM)
B34	16.9 nM	3.7 ratio (head: nM)

Target: T2, Recombinant DR3-Fc (R&D Systems, cat. …)
Experiment: ELISA, DR3-Fc immobilized
Description: All ELISA-based measurements were collected in triplicate, and error values report the standard error between measurements. Recombinant DR3-Fc (R&D Systems, cat. #943-D3), dimeric MW˜92 kDa, was non-specifically immobilized onto plates (Nunc maxisorp, cat. #436110) in 100 μL DR3-Fc, diluted to 10 μg/mL onto a 96-well White Maxisorp plate (Nunc, cat #436110) (O/N, 4° C.). Plates were block for 1 hour at room temperature with 250 μl/well of casein buffer and blocking buffer was removed. 50 μL of TL1A variants were diluted in StartingBlock PBS (Thermo Fisher Scientific), at 25 μg/mL, diluting 3× over each well, according to the plate map description for 20160623) per well on a 96-well White Maxisorp plate (Nunc, cat #: 436110) (overnight at 4° C.).
Plates were washed three times with TBST. 100 μl/well polyclonal rabbit anti-human TL1A-biotin antibody (diluted 1:1000 in Starting Block PBS) was added and plates were incubated for 1 hour at room temperature with shaking at 150 rpm. TL1A-biotin antibody was removed and 100 μl/well streptavidin-HRP conjugate (diluted 1:10,000 in Starting Block PBS) was added to plates. Plates were incubated for 1 hour at room temperature with shaking at 150 rpm. Plates were washed three times with TBST. 100 μl/well POD Chemiluminescence substrate (Roche, cat #: 11582950001) was added immediately prior to reading plate luminescence using a Molecular Devices M5 plate reader with a delay setting of 100 ms.
Variants of TL1A were generated and tested for binding to DR3 and DcR3 by ELISA as described.

Binder	EC50	Rel EC50
B1	281 nM	10.7 ratio (head: nM)
B2	710 nM	27.1 ratio (head: nM)
B3	260 nM	9.9 ratio (head: nM)
B35	14.8 nM	0.6 ratio (head: nM)
B6	204 nM	7.8 ratio (head: nM)
B7	100 nM	3.8 ratio (head: nM)
B8	565 nM	21.6 ratio (head: nM)
B9	207 nM	7.9 ratio (head: nM)
B11	9.5 nM	0.4 ratio (head: nM)
B12	25 nM	1 ratio (head: nM)
B36	284 nM	10.8 ratio (head: nM)
B16	77.7 nM	3 ratio (head: nM)
B18	34.4 nM	1.3 ratio (head: nM)
B21	423 nM	16.1 ratio (head: nM)
B22	168 nM	6.4 ratio (head: nM)
B24	22.6 nM	0.9 ratio (head: nM)
B25	77.2 nM	2.9 ratio (head: nM)
B28	13.4 nM	0.5 ratio (head: nM)
B29	30.7 nM	1.2 ratio (head: nM)
B32	184 nM	7 ratio (head: nM)
B33	16.4 nM	0.6 ratio (head: nM)
B37	39.1 nM	1.5 ratio (head: nM)
